Publication PMC5405427

T1: IBV nsp9 wild-type (avian infectious bronchitis virus (IBV) …, UniProt P0C6Y3 3675-3785)
T1 sequence: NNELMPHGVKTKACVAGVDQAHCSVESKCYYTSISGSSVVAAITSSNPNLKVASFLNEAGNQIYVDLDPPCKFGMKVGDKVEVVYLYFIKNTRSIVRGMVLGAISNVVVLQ


Columns and labels:
IBV nsp9 wild-type [1] = biological target: T1, IBV nsp9 wild-type; test: BLI
IBV nsp9 wild-type [2] = biological target: T1, IBV nsp9 wild-type; test: zone-interference gel electrophoresis

Binder	Kd (IBV nsp9 wild-type [1])	binding result (IBV nsp9 wild-type [2])
CGACUCAUGGACCUUGGCAG (ssRNA, phosphorothioate linkages at last two 3' residues (A19, G20)) [20-mer RNA, biotin (BLI)]	28 µM	–
CGACTCATGGACCTTGGCAG (ssDNA) [20-mer ssDNA]	–	binds
